We go through one substance from article PMC4660254.

In the test the target is Mud C-terminal coiled-coil domain (Mud^CC) (Drosophila). The test is described as follows: SEC. In general terms: SEC sorts molecules by how far they enter the pores of the column.

Broadly, the stoichiometry N is a count of units in the complex or per binding partner.

As to “Mud C-terminal coiled-coil domain (Mud^CC) (domain or fragment)”, the stoichiometry N worked out at 3.
